Reference: patent US20240400675A1 (published 2024)
Positions count from the first letter of the chain named.

T1: mouse CLDN6 (mouse, UniProt Q9Z262 1-219)
T1 construct: whole, on cells; also called murine CLDN6
T1 sequence (looked up): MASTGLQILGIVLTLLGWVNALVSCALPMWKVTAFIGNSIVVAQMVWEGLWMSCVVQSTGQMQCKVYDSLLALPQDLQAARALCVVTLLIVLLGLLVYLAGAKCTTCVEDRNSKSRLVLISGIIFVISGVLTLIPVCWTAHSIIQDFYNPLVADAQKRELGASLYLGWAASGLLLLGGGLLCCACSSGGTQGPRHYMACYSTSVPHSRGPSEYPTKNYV

T2: CLDN6 I143V isotype (human, UniProt P56747 1-220)
T2 chain: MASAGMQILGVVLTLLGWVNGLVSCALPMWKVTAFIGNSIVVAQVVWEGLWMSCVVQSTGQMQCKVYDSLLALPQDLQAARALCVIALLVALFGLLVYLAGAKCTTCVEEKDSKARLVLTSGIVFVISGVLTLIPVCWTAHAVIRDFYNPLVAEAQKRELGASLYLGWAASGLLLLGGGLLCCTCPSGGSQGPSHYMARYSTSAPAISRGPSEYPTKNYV

T3: human CLDN6 (human, UniProt P56747 1-220)
T3 construct: also called Claudin 6
T3 sequence: T2 chain with V143I

T4: human CLDN5 (human, UniProt O00501 1-218)
T4 construct: whole, on cells
T4 sequence (looked up): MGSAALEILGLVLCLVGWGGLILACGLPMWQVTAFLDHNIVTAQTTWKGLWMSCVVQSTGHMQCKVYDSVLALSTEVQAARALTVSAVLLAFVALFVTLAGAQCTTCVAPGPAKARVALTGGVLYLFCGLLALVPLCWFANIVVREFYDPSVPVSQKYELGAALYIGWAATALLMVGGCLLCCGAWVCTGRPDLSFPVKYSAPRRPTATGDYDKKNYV

T5: human CLDN17 (human, UniProt P56750 1-224)
T5 construct: whole, on cells
T5 sequence (looked up): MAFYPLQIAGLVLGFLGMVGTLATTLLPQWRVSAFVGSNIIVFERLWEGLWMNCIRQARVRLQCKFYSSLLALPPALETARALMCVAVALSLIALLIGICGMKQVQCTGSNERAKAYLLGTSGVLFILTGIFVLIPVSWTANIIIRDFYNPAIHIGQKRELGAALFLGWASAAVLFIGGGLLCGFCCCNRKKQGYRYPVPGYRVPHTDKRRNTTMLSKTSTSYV

T6: human CLDN8 (human, UniProt P56748 1-225)
T6 construct: whole, on cells
T6 sequence (looked up): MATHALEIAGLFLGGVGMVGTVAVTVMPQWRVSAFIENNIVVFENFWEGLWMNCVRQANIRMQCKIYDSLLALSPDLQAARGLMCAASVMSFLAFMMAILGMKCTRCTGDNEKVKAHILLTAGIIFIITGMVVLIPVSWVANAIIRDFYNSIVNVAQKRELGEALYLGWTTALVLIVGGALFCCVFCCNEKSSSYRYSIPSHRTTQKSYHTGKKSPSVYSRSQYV

B1: XENP34233 (C6-30_H1L1 x CD3 bsAb in the 2+1 Fab2-scFv-Fc format) (bispecific antibody)
heavy 1: QVQLVQSGAEVKKPGASVKVSCKTSGYTFTEYTMHWVRQAPGQSLEWMGGIDPNNGNTHYNQKFQGRVTITVDKSASTAYMELSSLRSEDTAVYYCARIYYFGRLYFDFWGAGTLVTVSSASTKGPSVFPLAPSSKSTSGGTAALGCLVKDYFPEPVTVSWNSGALTSGVHTFPAVLQSSGLYSLSSVVTVPSSSLGTQTYICNVNHKPSDTKVDKKVEPKSCDKTHTCPPCPAPPVAGPSVFLFPPKPKDTLMISRTPEVTCVVVDVKHEDPEVKFNWYVDGVEVHNAKTKPREEEYNSTYRVVSVLTVLHQDWLNGKEYKCKVSNKALPAPIEKTISKAKGQPREPQVYTLPPSREEMTKNQVSLTCDVSGFYPSDIAVEWESDGQPENNYKTTPPVLDSDGSFFLYSKLTVDKSRWEQGDVFSCSVMHEALHNHYTQKSLSLSPGK
heavy 2: QVQLVQSGAEVKKPGASVKVSCKTSGYTFTEYTMHWVRQAPGQSLEWMGGIDPNNGNTHYNQKFQGRVTITVDKSASTAYMELSSLRSEDTAVYYCARIYYFGRLYFDFWGAGTLVTVSSASTKGPSVFPLAPSSKSTSGGTAALGCLVKDYFPEPVTVSWNSGALTSGVHTFPAVLQSSGLYSLSSVVTVPSSSLGTQTYICNVNHKPSNTKVDKKVEPKSCGGGGSGGGGSQAVVTQEPSLTVSPGGTVTLTCGSSTGAVTTSNYANWVQQKPGKSPRGLIGGTNKRAPGVPARFSGSLLGGKAALTISGAQPEDEADYYCALWYSNHWVFGGGTKLTVLGKPGSGKPGSGKPGSGKPGSEVQLVESGGGLVQPGGSLRLSCAASGFTFSTYAMNWVRQAPGKGLEWVGRIRSKYNNYATYYADSVKGRFTISRDDSKNTLYLQMNSLRAEDTAVYYCVRHGNFGDSYVSWFAYWGQGTLVTVSSGGGGSGGGGSKTHTCPPCPAPPVAGPSVFLFPPKPKDTLMISRTPEVTCVVVDVKHEDPEVKFNWYVDGVEVHNAKTKPREEQYNSTYRVVSVLTVLHQDWLNGKEYKCKVSNKALPAPIEKTISKAKGQPREPQVYTLPPSREQMTKNQVKLTCLVKGFYPSDIAVEWESNGQPENNYKTTPPVLDSDGSFFLYSKLTVDKSRWQQGNVFSCSVMHEALHNHYTQKSLSLSPGK
light: not shown
notes: copies: 1 + 1 + 2
B2: XENP34638 (C6-30_H2L1 x CD3 bsAb in the 2+1 Fab2-scFv-Fc format) (bispecific antibody)
heavy 1: EVQLVQSGAEVKKPGESLRISCKTSGYTFTEYTMHWVRQMPGKSLEWMGGIDPNNGNTHYNQKFQGHVTISVDKSISTAYLQWSSLKASDTAMYYCARIYYFGRLYFDFWGAGTLVTVSSASTKGPSVFPLAPSSKSTSGGTAALGCLVKDYFPEPVTVSWNSGALTSGVHTFPAVLQSSGLYSLSSVVTVPSSSLGTQTYICNVNHKPSDTKVDKKVEPKSCDKTHTCPPCPAPPVAGPSVFLFPPKPKDTLMISRTPEVTCVVVDVKHEDPEVKFNWYVDGVEVHNAKTKPREEEYNSTYRVVSVLTVLHQDWLNGKEYKCKVSNKALPAPIEKTISKAKGQPREPQVYTLPPSREEMTKNQVSLTCDVSGFYPSDIAVEWESDGQPENNYKTTPPVLDSDGSFFLYSKLTVDKSRWEQGDVFSCSVMHEALHNHYTQKSLSLSPGK
heavy 2: EVQLVQSGAEVKKPGESLRISCKTSGYTFTEYTMHWVRQMPGKSLEWMGGIDPNNGNTHYNQKFQGHVTISVDKSISTAYLQWSSLKASDTAMYYCARIYYFGRLYFDFWGAGTLVTVSSASTKGPSVFPLAPSSKSTSGGTAALGCLVKDYFPEPVTVSWNSGALTSGVHTFPAVLQSSGLYSLSSVVTVPSSSLGTQTYICNVNHKPSNTKVDKKVEPKSCGGGGSGGGGSQAVVTQEPSLTVSPGGTVTLTCGSSTGAVTTSNYANWVQQKPGKSPRGLIGGTNKRAPGVPARFSGSLLGGKAALTISGAQPEDEADYYCALWYSNHWVFGGGTKLTVLGKPGSGKPGSGKPGSGKPGSEVQLVESGGGLVQPGGSLRLSCAASGFTFSTYAMNWVRQAPGKGLEWVGRIRSKYNNYATYYADSVKGRFTISRDDSKNTLYLQMNSLRAEDTAVYYCVRHGNFGDSYVSWFAYWGQGTLVTVSSGGGGSGGGGSKTHTCPPCPAPPVAGPSVFLFPPKPKDTLMISRTPEVTCVVVDVKHEDPEVKFNWYVDGVEVHNAKTKPREEQYNSTYRVVSVLTVLHQDWLNGKEYKCKVSNKALPAPIEKTISKAKGQPREPQVYTLPPSREQMTKNQVKLTCLVKGFYPSDIAVEWESNGQPENNYKTTPPVLDSDGSFFLYSKLTVDKSRWQQGNVFSCSVMHEALHNHYTQKSLSLSPGK
light: not shown
notes: copies: 1 + 1 + 2

Legend:
mouse CLDN6 = target: T1, mouse CLDN6; experiment: flow cytometry on transfected HEK293E cells
Method: (§1) The following experiments used to screen CLDN6 binding domains were generally performed as follows. HEK293T or HEK293E cells were respectively stably or transiently transfected to express CLDN6, CLND9, or other targets of interest. 48 hours post transfection, cells were harvested and incubated with dilutions of the indicated test articles for 1 hour at 4° C. […] Binding was then assessed via flow cytometry.

CLDN6 I143V isotype = target: T2, CLDN6 I143V isotype; experiment: flow cytometry on transfected HEK293E cells
Method: as §1

human CLDN6 = target: T3, human CLDN6; experiment: flow cytometry on transfected HEK293E cells
Method: as §1

human CLDN5 = target: T4, human CLDN5; experiment: flow cytometry on transfected cells
human CLDN17 = target: T5, human CLDN17; experiment: flow cytometry on transfected cells
human CLDN8 = target: T6, human CLDN8; experiment: flow cytometry on transfected cells

Row | Binder | binding result (mouse CLDN6) | binding result (CLDN6 I143V isotype) | binding result (human CLDN6) | binding result (human CLDN5) | binding result (human CLDN17) | binding result (human CLDN8)
1 | B1 | binds | binds | binds | no binding | no binding | no binding
2 | B2 | binds | binds | binds | no binding | no binding | no binding
